These results are taken from publication PMC2176068, “Hepatoma derived growth factor binds DNA through the N-terminal PWWP domain”.

Series [1] concerns the target TNT-HDGF (untagged) (UniProt P51858 1-240). The series is described as follows: EMSA; 10 mM Tris pH 7.5, 50 mM KCl, 1 mM DTT, 5% glycerol, 0.05% NP-40, 0.1 ug sheared salmon sperm DNA; 1 ug protein, 0.25 pmol probe, 30 min on ice; 5% PAGE in 0.1x TBE. The settings on record: protein: ivt; tags: none; label: 5' biotin (sense strand); blunt. Background: A gel shift assay detects complexes by their altered migration in electrophoresis.

Series [2] has as its target GST-HDGF Δ1-140 (Homo sapiens, UniProt P51858 1-140). The series is described as above. The following applies: protein: recombinant; tags: N-terminal GST; label: 5' biotin (sense strand); blunt.
Series [3] addresses T1, GST-HDGF (Homo sapiens, UniProt P51858 1-240). Described as above. The settings on record: protein: recombinant, tags: N-terminal GST (pGEX-4T2), blunt.
Series [4] deals with GST-HDGF Δ70-237 (Homo sapiens, UniProt P51858 70-237). The description is as above. The following applies: protein: recombinant; tags: N-terminal GST; label: 5' biotin (sense strand); blunt.
Series [5] has as its target GST-HDGF Δ1-110 (Homo sapiens, UniProt P51858 1-110). The series is described as above. The following applies: protein: recombinant; tags: N-terminal GST; label: 5' biotin (sense strand); blunt.
Series [6] deals with GST-HDGF Δ1-146 (Homo sapiens, UniProt P51858 1-146). The series is described as above. The following applies: protein: recombinant; tags: N-terminal GST; label: 5' biotin (sense strand); blunt.
Series [7] concerns the target His-HDGF-GFP (UniProt P51858 1-240). The series is described as above. The following applies: protein: recombinant; tags: His, GFP; label: 5' biotin (sense strand); blunt.
In series [8] the target is T1, GST-HDGF. Put plainly: competition; 100x unlabeled, labeled 80 bp probe; 10 mM Tris pH 7.5, 50 mM KCl, 1 mM DTT, 5% glycerol, 0.05% NP-40, 0.1 ug sheared salmon sperm DNA; 1 ug protein, 0.25 pmol probe, 30 min on ice; 5% PAGE in 0.1x TBE. The following applies: protein: recombinant, tags: N-terminal GST (pGEX-4T2).

T1 sequence (P51858 whole entry): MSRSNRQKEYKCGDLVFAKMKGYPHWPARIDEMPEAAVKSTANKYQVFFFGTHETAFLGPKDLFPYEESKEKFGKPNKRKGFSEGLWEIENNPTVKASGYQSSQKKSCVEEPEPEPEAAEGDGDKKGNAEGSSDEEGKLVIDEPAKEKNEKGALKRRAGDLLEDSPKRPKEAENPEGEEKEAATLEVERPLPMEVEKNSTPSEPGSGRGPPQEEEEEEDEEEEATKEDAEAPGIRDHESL
Chain of GST-HDGF Δ1-146 (P51858 1-146, stated change not applied): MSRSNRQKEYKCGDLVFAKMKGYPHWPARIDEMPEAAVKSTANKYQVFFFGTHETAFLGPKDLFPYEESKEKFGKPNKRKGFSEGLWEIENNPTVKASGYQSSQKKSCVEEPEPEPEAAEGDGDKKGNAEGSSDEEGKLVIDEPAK
Chain of GST-HDGF Δ1-140 (P51858 1-140, stated change not applied): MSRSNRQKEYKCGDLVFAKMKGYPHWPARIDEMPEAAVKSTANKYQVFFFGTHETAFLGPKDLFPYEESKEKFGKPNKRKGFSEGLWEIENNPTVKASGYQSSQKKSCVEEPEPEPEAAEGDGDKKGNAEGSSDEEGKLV
Chain of GST-HDGF Δ1-110 (P51858 1-110, stated change not applied): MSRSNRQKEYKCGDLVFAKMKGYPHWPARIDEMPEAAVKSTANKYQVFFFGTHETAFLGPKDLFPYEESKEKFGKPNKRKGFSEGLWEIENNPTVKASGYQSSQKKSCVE
Chain of His-HDGF-GFP (P51858 whole entry): as the sequence (P51858 whole entry) above
Chain of TNT-HDGF (untagged) (P51858 whole entry): as above
Chain of GST-HDGF Δ70-237 (P51858 70-237, stated change not applied): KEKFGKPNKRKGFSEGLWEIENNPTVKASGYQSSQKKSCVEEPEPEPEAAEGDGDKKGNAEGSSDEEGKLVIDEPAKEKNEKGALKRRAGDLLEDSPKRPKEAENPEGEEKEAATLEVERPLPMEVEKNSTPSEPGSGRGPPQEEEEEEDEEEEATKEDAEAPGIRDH

B1: SMYD1 promoter 80 bp probe (dsDNA)
DNA 1: CAGGCTGGTCTTGAACTCCTGACCTCAGATGATCCATGTGCCTCGGCCTCCCAAGGTGGGGATTACAGGCGTGAGCCACC
DNA 2: GGTGGCTCACGCCTGTAATCCCCACCTTGGGAGGCCGAGGCACATGGATCATCTGAGGTCAGGAGTTCAAGACCAGCCTG
As to B1, the binding result in series [1] is “binds”; in series [2], “binds”; in series [3] (label: 5' biotin (sense strand)), “binds”; in series [4], “no binding”; in series [5] it was “binds”; in series [6], “binds”. For the same molecule, in series [7], the binding result was “binds”.

B2: 80 bp specific competitor (unlabeled) (dsDNA)
DNA 1: CAGGCTGGTCTTGAACTCCTGACCTCAGATGATCCATGTGCCTCGGCCTCCCAAGGTGGGGATTACAGGCGTGAGCCACC
DNA 2: GGTGGCTCACGCCTGTAATCCCCACCTTGGGAGGCCGAGGCACATGGATCATCTGAGGTCAGGAGTTCAAGACCAGCCTG
With B2, the binding result in series [8] (blunt) is “binds”.

B3: 37 bp minimal probe (dsDNA)
DNA 1: CTTGAACTCCTGACCTCAGATGATCCATGTGCCTCGG
DNA 2: CCGAGGCACATGGATCATCTGAGGTCAGGAGTTCAAG
As for B3, in series [3] (label: 5' biotin), the binding result is “binds”.

B4: non-specific competitor (dsDNA)
DNA 1: TGCTGTTGACAGTGAGCGCGGCCAGCTTATAGTCATATATTAGTGAAGCCACAGATGTAATATATGACTATAAGCTGGCCTTGCCTACTGCCTCGGA
DNA 2: TCCGAGGCAGTAGGCAAGGCCAGCTTATAGTCATATATTACATCTGTGGCTTCACTAATATATGACTATAAGCTGGCCGCGCTCACTGTCAACAGCA
In the case of B4, the binding result in series [8] is recorded as “no binding”.
